From patent publication US7087711 (Harvard, dated 2006)

T1: TATA-binding protein (TBP) (yeast, UniProt P13393 1-240, limits assumed)
T1 construct: Soluble analyte, injected over Gal4 derivatives captured on DNA in SPR
T1 sequence (looked up): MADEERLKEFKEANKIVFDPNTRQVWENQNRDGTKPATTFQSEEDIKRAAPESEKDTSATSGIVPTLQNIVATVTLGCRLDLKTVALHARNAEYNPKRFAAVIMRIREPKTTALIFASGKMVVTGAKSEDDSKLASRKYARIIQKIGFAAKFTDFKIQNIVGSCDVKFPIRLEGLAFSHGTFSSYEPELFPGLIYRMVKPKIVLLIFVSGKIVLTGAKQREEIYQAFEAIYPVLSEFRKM


Molecular target: T1, TATA-binding protein (TBP)
Experiment: SPR, Gal4 derivative captured on a DNA-bearing chip, TBP injected
Procedure: PROTEIN—PROTEIN INTERACTIONS: The activators (GAL4 derivatives and other activating regions fused to GAL4 DNA binding domain) were first passed over the DNA-bearing chip. Typically 10 µl of 0.01 mg/ml protein solution (~1 µM) in HBS (10 mM HEPES pH 7.4, 150 mM NaCl, 0.0005% Surfectant P20, Pharmacia) were injected at a flow rate of 5 µl/min, and the DNA was saturated by the activators. This is indicated by the first increase of the RU value on the sensorgrams. Various proteins to be tested (e.g., TBP) were then injected (typically 20 µl of […] solution in HBS at a flow rate of 5 µl/min), and their binding to the activating regions was indicated by the second increase of the RU value on the sensogram. The DNA bearing chip was then regenerated by washing with 10 µl of 0.1% SDS, a procedure that washes both proteins off the DNA, but leaves the DNA bearing chip intact. The baseline of the sensorgrams always comes back to the original level after each regeneration. A different activator was then injected to the same surface at the same concentration, and the DNA was once again saturated with the activators. As a consequence the same number of the molecules of the activators was immobilized to the chip each time. The protein to be tested (e.g., TBP) was once again injected and its binding to this activator was compared to that of the previous one. […]

Binder | Ka [M⁻¹]
GAL4(1-100)+(840-857) (other, yeast, UniProt P04386 1-100, looked up, range 1-100;range 840-857) MKLLSSIEQACDICRLKKLKCSKEKPKCAKCLKNNWECRYSPKTKRSPLTRAHLTEVESRLERLEQLFLLIFPREDLDMILKMDSLQDIKALLTGLFVQDWTDQTAYNAFGITTGMFN | 2e+06
GAL4(1-100)+(840-881) fusion (other, yeast, UniProt P04386 1-100, looked up, range 1-100;range 840-881; also called G4RII' (as Gal4(840-881)) fused to Gal4(1-100); RJR182) MKLLSSIEQACDICRLKKLKCSKEKPKCAKCLKNNWECRYSPKTKRSPLTRAHLTEVESRLERLEQLFLLIFPREDLDMILKMDSLQDIKALLTGLFVQDWTDQTAYNAFGITTGMFNTTTMDDVYNYLFDDEDTPPNPKKE | 6e+06
